# Experimental data as given in article PMC6120343 (Nature, 2018).
# How the values were obtained:
# [1] = target: the molecule itself; test: SEC
# [2] = target: the molecule itself; test: cryo-EM 2D class averages
# [3] = target: the molecule itself; test: assembly and coassembly seen by negative stain electron microscopy
# [4] = target: DRP1 E116R mutant, full length (human, UniProt O00429-3 1-710, E116R); test: as above
binder,measurement,setting,value
"DRP1 G362D, disease-associated mutant, full length (enzyme) MEALIPVINKLQDVFNTVGADIIQLPQIVVVGTQSSGKSSVLESLVGRDLLPRGTGIVTRRPLILQLVHVSQEDKRKTTGEENGVEAEEWGKFLHTKNKLYTDFDEIRQEIENETERISGNNKGVSPEPIHLKIFSPNVVNLTLVDLPGMTKVPVGDQPKDIELQIRELILRFISNPNSIILAVTAANTDMATSEALKISREVDPDGRRTLAVITKLDLMDAGTDAMDVLMGRVIPVKLGIIGVVNRSQLDINNKKSVTDSIRDEYAFLQKKYPSLANRNGTKYLARTLNRLLMHHIRDCLPELKTRINVLAAQYQSLLNSYGEPVDDKSATLLQLITKFATEYCNTIEGTAKYIETSELCDGARICYIFHETFGRTLESVDPLGGLNTIDILTAIRNATGPRPALFVPEVSFELLVKRQIKRLEEPSLRCVELVHEEMQRIIQHCSNYSTQELLRFPKLHDAIVEVVTCLLRKRLPVTNEMVHNLVAIELAYINTKHPDFADACGLMNNNIEEQRRNRLARELPSAVSRDKLIQDSRRETKNVASGGGGVGDGVQEPTTGNWRGMLKTSKAEELLAEEKSKPIPIMPASPQKGHAVNLLDVPVPVARKLSAREQRDCEVIERLIKSYFLIVRKNIQDSVPKAVMHFLVNHVKDTLQSELVGQLYKSSLLDDLLTESEDMAQRRKEAADMLKALQGASQIIAEIRETHLW",stoichiometry N,[1],2
same,stoichiometry N,[2],24 chains (12 dimers)
"DRP1 S611D phosphomimetic mutant, full length (enzyme) MEALIPVINKLQDVFNTVGADIIQLPQIVVVGTQSSGKSSVLESLVGRDLLPRGTGIVTRRPLILQLVHVSQEDKRKTTGEENGVEAEEWGKFLHTKNKLYTDFDEIRQEIENETERISGNNKGVSPEPIHLKIFSPNVVNLTLVDLPGMTKVPVGDQPKDIELQIRELILRFISNPNSIILAVTAANTDMATSEALKISREVDPDGRRTLAVITKLDLMDAGTDAMDVLMGRVIPVKLGIIGVVNRSQLDINNKKSVTDSIRDEYAFLQKKYPSLANRNGTKYLARTLNRLLMHHIRDCLPELKTRINVLAAQYQSLLNSYGEPVDDKSATLLQLITKFATEYCNTIEGTAKYIETSELCGGARICYIFHETFGRTLESVDPLGGLNTIDILTAIRNATGPRPALFVPEVSFELLVKRQIKRLEEPSLRCVELVHEEMQRIIQHCSNYSTQELLRFPKLHDAIVEVVTCLLRKRLPVTNEMVHNLVAIELAYINTKHPDFADACGLMNNNIEEQRRNRLARELPSAVSRDKLIQDSRRETKNVASGGGGVGDGVQEPTTGNWRGMLKTSKAEELLAEEKSKPIPIMPASPQKGHAVNLLDVPVPVARKLDAREQRDCEVIERLIKSYFLIVRKNIQDSVPKAVMHFLVNHVKDTLQSELVGQLYKSSLLDDLLTESEDMAQRRKEAADMLKALQGASQIIAEIRETHLW",binding result,[3],binds
"MID49_(126-454), soluble truncation of Mitochondrial Dynamics 49 without the N-terminal transmembrane anchor (domain or fragment) TLQERLLAFERDRVTIPAAQVALAKQLAGDIALELQAYFRSKFPELPFGAFVPGGPLYDGLQAGAADHVRLLVPLVLEPGLWSLVPGVDTVARDPRCWAVRRTQLEFCPRGSSPWDRFLVGGYLSSRVLLELLRKALAASVNWPAIGSLLGCLIRPSMASEELLLEVQHERLELTVAVLVAVPGVDADDRLLLAWPLEGLAGNLWLQDLYPVEAARLRALDDHDAGTRRRLLLLLCAVCRGCSALGQLGRGHLTQVVLRLGEDNVDWTEEALGERFLQALELLIGSLEQASLPCHFNPSVNLFSSLREEEIDDIGYALYSGLQEPEGLL",binding result,[4],binds
